To fix the notation:
B1: MnC4t1p1_A10 (antibody, V domains shown)
VH: QLQVQESGPGLVKPSETLSLTCTVSGASISSNHYFWGWIRQPPGKGLAWIGSMHYSGSTYYNPSLKSRVTISVDTSKNQLSLKLSSVTAADTAVYYCARGVNYYDRNGYYRNDGFDIRGQGTMVTVSS
VL: DIQMTQSPSSLSASVGDRVTITCRASQGIRNDLGWYEQKPGKAPKRLIYAASSLESGVPSRFSGSGSGTEFTLTISSLQPEDFATYYCLQHNTYPFTFGPGTRVDIK
B2: MnC4t2p1_D10 (antibody, V domains shown)
VH: QLQVQESGPGLVKPSETLSLTCTVSGASISSNHYFWGWIRQPPGKGLAWIGSMHYSGSTYYNPSLKSRVTISVDTSKNQLSLKLSSVTAADTAVYYCARGVNYYDRNGYYRNDGFDIRGQGTMVTVSS
VL: DIQMTQSPSSLSASVGDRVTITCRASQGIRNDLGWYEQKPGKAPKRLIYAASSLESGVPSRFSGSGSGTEFTLTISSLQPEDFATYYCLQHNTYPFTFGPGTRVDIK
B3: MnC4t2p1_F5 (antibody, V domains shown)
VH: QLQVQESGPGLVKPSETLSLTCTVSGASISSNHYFWGWIRQPPGKGLAWIGSMHYSGSTYYNPSLKSRVTISVDTSKNQLSLKLSSVTAADTAVYYCARGVNYYDRNGYYRNDGFDIRGQGTMVTVSS
VL: DIQMTQSPSSLSASVGDRVTITCRASQGIRNDLGWYEQKPGKAPKRLIYAASSLESGVPSRFSGSGSGTEFTLTISSLQPEDFATYYCLQHNTYPFTFGPGTRVDIK

In this assay the target is SARS-CoV-2 (spike protein) antigen of the Euroimmun IgG detection kit. Put plainly: Euroimmun IgG ELISA kit, antibody at 50 µg/ml [cont'd]. (In an ELISA, binding on a coated surface is turned into a signal by an enzyme label.)
B1 returned an IgG detection test of 4.87. B2 registered an IgG detection test of 5.3. B3 had an IgG detection test of 5.19.

The values are drawn from patent US20210371503A1.
